Data: patent US20230322924A1

Key:
[1] = biological target: recombinant human CD3ε (1-27) peptide with a C-terminal Tencon25 fusion (human) (UniProt P07766); experiment: ProteOn SPR, mAb captured by anti-human Fc, antigen as analyte
[2] = biological target: human CD3 on human T cells (human) (UniProt P07766); experiment: competition with AF488 SP-34 tracer on human pan T cells, flow cytometry
[3] = biological target: human CD3 on human T cells (human) (UniProt P07766); experiment: Kd = IC50/(1+[T]/KdT) from competition with AF488 SP-34 on human pan T cells

Sequence of human CD3 on human T cells (human) (P07766 23-207 limits assumed): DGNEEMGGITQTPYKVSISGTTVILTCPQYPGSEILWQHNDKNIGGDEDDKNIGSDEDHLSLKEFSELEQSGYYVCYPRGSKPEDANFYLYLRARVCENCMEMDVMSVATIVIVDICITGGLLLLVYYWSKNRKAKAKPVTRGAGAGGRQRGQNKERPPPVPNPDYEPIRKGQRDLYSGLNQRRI
Sequence of recombinant human CD3ε (1-27) peptide with a C-terminal Tencon25 fusion (human) (P07766 22-48): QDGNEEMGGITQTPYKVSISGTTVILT

Binder	Kd [1] [nM]	koff [1] [s⁻¹]	kon [1] [M⁻¹ s⁻¹]	IC50 [2] [nM]	Kd [3] [nM]
CD3B312 (antibody, V domains shown) VH: QVQLQQSGPRLVRPSQTLSLTCAISGDSVFNNNAAWSWIRQSPSRGLEWLGRTYYRSKWLYDYAVSVKSRITVNPDTSRNQFTLQLNSVTPEDTALYYCARGYSSSFDYWGQGTLVTVSS VL: QSALTQPASVSGSPGQSITISCTGTSSNIGTYKFVSWYQQHPDKAPKVLLYEVSKRPSGVSSRFSGSKSGNTASLTISGLQAEDQADYHCCSYAGSGTLLFGGGTKLTVL	20.6	0.00187	90800		
BLW-2E6 variant CD3H219/CD3L137 (antibody, V domains shown) VH: QVQLQQSGPRLVRPSQTLSLTCAISGDSVFNNNAAWSWIRQSPSRGLEWLGRTYYRSKWLYDYAVSVKSRITVNPDTSRNQFTLQLNSVTPEDTALYYCARGYSSSFDYWGQGTLVTVSS VL: QSALTQPASVSGSPGQSITISCTGTSSNIGTYKFVSWYQQHPGKAPKVMIYEVSKRPSGVSNRFSGSKSGNTASLTISGLQAEDEADYYCCSYAGSGTLLFGGGTKLTVL	32.9	0.00202	61300		
BLW-2E6 variant CD3H219/CD3L160 (LC C91L) (antibody, V domains shown) VH: QVQLQQSGPRLVRPSQTLSLTCAISGDSVFNNNAAWSWIRQSPSRGLEWLGRTYYRSKWLYDYAVSVKSRITVNPDTSRNQFTLQLNSVTPEDTALYYCARGYSSSFDYWGQGTLVTVSS VL: QSALTQPASVSGSPGQSITISCTGTSSNIGTYKFVSWYQQHPDKAPKVLLYEVSKRPSGVSSRFSGSKSGNTASLTISGLQAEDQADYHCLSYAGSGTLLFGGGTKLTVL	41.1	0.00405	98400		
CD3B376 (antibody, human IgG4 S228P, lambda, F234A L235A, V domains shown) VH: QVQLQQSGPRLVRPSQTLSLTCAISGDSVFNNNAAWSWIRQSPSRGLEWLGRTYYRSKWLYDYAVSVKSRITVNPDTSRNQFTLQLNSVTPEDTALYYCARGYSSSFDYWGQGTLVTVSS VL: QSALTQPASVSGSPGQSITISCTGTSSNIGTYKFVSWYQQHPDKAPKVLLYEVSKRPSGVSSRFSGSKSGNTASLTISGLQAEDQADYHCVSYAGSGTLLFGGGTKLTVLG	23.3	0.00237	102000		
monovalent CD3B376 construct (bispecific antibody, part only; not given: unnamed target arm, not shown: another chain or arm of the molecule; small tags and cut ends) heavy: QVQLQQSGPRLVRPSQTLSLTCAISGDSVFNNNAAWSWIRQSPSRGLEWLGRTYYRSKWLYDYAVSVKSRITVNPDTSRNQFTLQLNSVTPEDTALYYCARGYSSSFDYWGQGTLVTVSSASTKGPSVFPLAPCSRSTSESTAALGCLVKDYFPEPVTVSWNSGALTSGVHTFPAVLQSSGLYSLSSVVTVPSSSLGTKTYTCNVDHKPSNTKVDKRVESKYGPPCPPCPAPEAAGGPSVFLFPPKPKDTLMISRTPEVTCVVVDVSQEDPEVQFNWYVDGVEVHNAKTKPREEQFNSTYRVVSVLTVLHQDWLNGKEYKCKVSNKGLPSSIEKTISKAKGQPREPQVYTLPPSQEEMTKNQVSLTCLVKGFYPSDIAVEWESNGQPENNYKTTPPVLDSDGSFLLYSKLTVDKSRWQEGNVFSCSVMHEALHNHYTQKSLSLSLGK light: QSALTQPASVSGSPGQSITISCTGTSSNIGTYKFVSWYQQHPDKAPKVLLYEVSKRPSGVSSRFSGSKSGNTASLTISGLQAEDQADYHCVSYAGSGTLLFGGGTKLTVLGQPKAAPSVTLFPPSSEELQANKATLVCLISDFYPGAVTVAWKADSSPVKAGVETTTPSKQSNNKYAASSYLSLTPEQWKSHRSYSCQVTHEGSTVEKTVAPTECS				409	103
monovalent CD3B450 construct (bispecific antibody, part only; not given: unnamed target arm, not shown: another chain or arm of the molecule; small tags and cut ends) heavy: QVQLQQSGPGLVKPSQTLSLTCAISGDSVFNNNAAWSWIRQSPSRGLEWLGRTYYRSKWLYDYAVSVKSRITINPDTSKNQFSLQLNSVTPEDTAVYYCARGYSSSFDYWGQGTLVTVSSASTKGPSVFPLAPCSRSTSESTAALGCLVKDYFPEPVTVSWNSGALTSGVHTFPAVLQSSGLYSLSSVVTVPSSSLGTKTYTCNVDHKPSNTKVDKRVESKYGPPCPPCPAPEAAGGPSVFLFPPKPKDTLMISRTPEVTCVVVDVSQEDPEVQFNWYVDGVEVHNAKTKPREEQFNSTYRVVSVLTVLHQDWLNGKEYKCKVSNKGLPSSIEKTISKAKGQPREPQVYTLPPSQEEMTKNQVSLTCLVKGFYPSDIAVEWESNGQPENNYKTTPPVLDSDGSFLLYSKLTVDKSRWQEGNVFSCSVMHEALHNHYTQKSLSLSLGK light: QSALTQPASVSGSPGQSITISCTGTSSNIGTYKFVSWYQQHPGKAPKVMIYEVSKRPSGVSNRFSGSKSGNTASLTISGLQAEDEADYYCVSYAGSGTLLFGGGTKLTVLGQPKAAPSVTLFPPSSEELQANKATLVCLISDFYPGAVTVAWKADSSPVKAGVETTTPSKQSNNKYAASSYLSLTPEQWKSHRSYSCQVTHEGSTVEKTVAPTECS				1010	254
